Earlier results on 2 substances are cited in paper PMC6399403.

Where two headings read alike, the source gives them in different places.

In data set [1] the target is CD155 (Homo sapiens) (UniProt P15151).
Data set [2] shares this target. The source holds these as a separate data set.

Chain of UniProt P15151 (P15151 21-343): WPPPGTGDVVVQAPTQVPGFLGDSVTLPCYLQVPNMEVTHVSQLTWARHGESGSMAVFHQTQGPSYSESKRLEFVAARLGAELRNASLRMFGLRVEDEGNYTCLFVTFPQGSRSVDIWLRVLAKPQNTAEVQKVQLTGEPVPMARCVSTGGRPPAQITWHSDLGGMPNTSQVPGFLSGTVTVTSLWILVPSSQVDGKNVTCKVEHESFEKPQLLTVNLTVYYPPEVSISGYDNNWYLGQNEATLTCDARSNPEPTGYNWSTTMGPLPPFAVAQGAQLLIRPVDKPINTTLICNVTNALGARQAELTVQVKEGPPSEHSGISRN

Turning to TIGIT (from UniProt Q495A1), the Kd with CD155 (Homo sapiens) [1] is 1 nM. On to CD226 (from UniProt Q15762), for which the Kd with CD155 (Homo sapiens) [2] is 100 nM.

As usually defined, the Kd is the equilibrium constant for the complex coming apart.
